How the values were obtained:
[1] = substrate: 禽流感病毒NP蛋白 (avian influenza virus)
indirect ELISA = substrate: 禽流感病毒NP蛋白 (avian influenza virus); assay: indirect ELISA

B1: 禽流感病毒NP蛋白的单克隆抗体 (antibody, V domains shown)
VH: EVRLQESRPELVEPGASVKISCNASAYTFSDYWMNCVKQSHGKSLECIGDISPTYDRTSYNHKFKGYATLTVDKSSSSAYIELRSLTSDDSAVYYCARGGYGNYRDYWGKRTTRTVSS
VL: MKYLLATAAAGILLLAAQPAMADVVMSQTTRTLSVSIEQPASISCKSSQSLLHSDGKSYLNWLLQRPRQSPKCLSYLVSRRDSGVPDRVTGSSSGTDVTLGISSVEAEDLRVYYYWQRTHCPITVGSGTKLDIK
B1 gave a 试纸条灵敏度 (lowest NP concentration detected) [1] of 0.18 µg/mL and an ELISA titre (dilution still positive) (fold dilution) (indirect ELISA) of over 102000.
